Values of other authors in US20110218118A1, “PEPTIDE MODULATORS OF CELLULAR PHENOTYPE AND BI-NUCLEIC ACID FRAGMENT LIBRARY” (PHYLOGICA LIMITED, priority 2004, published 2011).

Target: T1, human cyclin E (Homo sapiens, UniProt P24864)
T1 construct: expressed in transfected cells; host or cells: Saccharomyces cerevisiae strain AZ-1 (huCDK2::his2), mated with PRT 51
Conditions: yeast over-expressing human cyclin E and co-expressing human Cdk2

T1 sequence (P24864 16-410): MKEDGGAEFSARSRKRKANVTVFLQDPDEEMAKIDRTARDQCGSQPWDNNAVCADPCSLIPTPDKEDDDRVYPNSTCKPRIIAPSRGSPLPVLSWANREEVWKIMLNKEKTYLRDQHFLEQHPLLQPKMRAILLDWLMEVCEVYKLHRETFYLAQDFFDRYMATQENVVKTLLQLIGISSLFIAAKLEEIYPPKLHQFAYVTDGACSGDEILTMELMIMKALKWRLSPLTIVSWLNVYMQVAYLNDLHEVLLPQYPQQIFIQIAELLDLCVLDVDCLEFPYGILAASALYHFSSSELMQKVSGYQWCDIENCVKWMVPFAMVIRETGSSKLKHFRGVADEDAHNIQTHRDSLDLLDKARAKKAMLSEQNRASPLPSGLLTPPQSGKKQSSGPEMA

p21^CIP1: positive control protein, cDNA (SEQ ID NO: 60) cloned as in-frame fusion into the pMF4-5 plasmid
rescue of the cyclin E lethal phenotype in yeast: rescue the lethal phenotype in yeast
